B1: Ligand 015P (ligand)
chain: DGHHHHHHGSLQDSEVNQEAKPEVKPEVKPETHINLKVSDGSSEIFFKIKKTTPLRRLMEAFAKRQGKEMDSLTFLYDGIEIQADQTPEDLDMEDNDIIEAHREQIGGLEVLFQGPRDLRMKDKFLKHLTGPLYFSPKCSKHFHRLYHNTRDCTIPAYYKRCARLLTRLAVSPVCMEDKQ
B2: Ligand 009P (ligand)
chain: DGHHHHHHGSLQDSEVNQEAKPEVKPEVKPETHINLKVSDGSSEIFFKIKKTTPLRRLMEAFAKRQGKEMDSLTFLYDGIEIQADQTPEDLDMEDNDIIEAHREQIGGLEVLFQGPGPSPEQRVEIVPRDLRMKDKFLKHLTGPLYFSPKCSKHFHRLYHNTRDCTIPAYYKRCARLLTRLAVSPVCMEDKQ
B3: Ligand 016P (ligand)
chain: DGHHHHHHGSLQDSEVNQEAKPEVKPEVKPETHINLKVSDGSSEIFFKIKKTTPLRRLMEAFAKRQGKEMDSLTFLYDGIEIQADQTPEDLDMEDNDIIEAHREQIGGLEVLFQGPLRMKDKFLKHLTGPLYFSPKCSKHFHRLYHNTRDCTIPAYYKRCARLLTRLAVSPVCMEDKQ
B4: Ligand 003P (ligand)
chain: DGHHHHHHGSLQDSEVNQEAKPEVKPEVKPETHINLKVSDGSSEIFFKIKKTTPLRRLMEAFAKRQGKEMDSLTFLYDGIEIQADQTPEDLDMEDNDIIEAHREQIGGLEVLFQGPAEAAGLGPSPEQRVEIVPRDLRMKDKFLKHLTGPLYFSPKCSKHFHRLYHNTRDCTIPAYYKRCARLLTRLAVSPVCMEDKQ
B5: Ligand 024P (ligand)
chain: DGHHHHHHGSLQDSEVNQEAKPEVKPEVKPETHINLKVSDGSSEIFFKIKKTTPLRRLMEAFAKRQGKEMDSLTFLYDGIEIQADQTPEDLDMEDNDIIEAHREQIGGLEVLFQGPAEAAGLGPSPEQRVEIVPRDLRMKDKFLKHLTGPLYFSPKCSKHFHRLYHNTRDCTIPAYYKRCARLLTRLAVSPVCM
B6: Ligand 006P (ligand)
chain: DGHHHHHHGSLQDSEVNQEAKPEVKPEVKPETHINLKVSDGSSEIFFKIKKTTPLRRLMEAFAKRQGKEMDSLTFLYDGIEIQADQTPEDLDMEDNDIIEAHREQIGGLEVLFQGPGRAEAAGLGPSPEQRVEIVPRDLRMKDKFLKHLTGPLYFSPKCSKHFHRLYHNTRDCTIPAYYKRCARLLTRLAVSPVCMEDKQ
B7: Ligand 017P (ligand)
chain: DGHHHHHHGSLQDSEVNQEAKPEVKPEVKPETHINLKVSDGSSEIFFKIKKTTPLRRLMEAFAKRQGKEMDSLTFLYDGIEIQADQTPEDLDMEDNDIIEAHREQIGGLEVLFQGPMKDKFLKHLTGPLYFSPKCSKHFHRLYHNTRDCTIPAYYKRCARLLTRLAVSPVCMEDKQ
B8: Ligand 023P (ligand)
chain: DGHHHHHHGSLQDSEVNQEAKPEVKPEVKPETHINLKVSDGSSEIFFKIKKTTPLRRLMEAFAKRQGKEMDSLTFLYDGIEIQADQTPEDLDMEDNDIIEAHREQIGGLEVLFQGPAEAAGLGPSPEQRVEIVPRDLRMKDKFLKHLTGPLYFSPKCSKHFHRLYHNTRDCTIPAYYKRCARLLTRLAVSPVCMED
B9: Ligand 007P (ligand)
chain: DGHHHHHHGSLQDSEVNQEAKPEVKPEVKPETHINLKVSDGSSEIFFKIKKTTPLRRLMEAFAKRQGKEMDSLTFLYDGIEIQADQTPEDLDMEDNDIIEAHREQIGGLEVLFQGPAAGLGPSPEQRVEIVPRDLRMKDKFLKHLTGPLYFSPKCSKHFHRLYHNTRDCTIPAYYKRCARLLTRLAVSPVCMEDKQ
B10: Ligand 012P (ligand)
chain: DGHHHHHHGSLQDSEVNQEAKPEVKPEVKPETHINLKVSDGSSEIFFKIKKTTPLRRLMEAFAKRQGKEMDSLTFLYDGIEIQADQTPEDLDMEDNDIIEAHREQIGGLEVLFQGPRVEIVPRDLRMKDKFLKHLTGPLYFSPKCSKHFHRLYHNTRDCTIPAYYKRCARLLTRLAVSPVCMEDKQ
B11: Ligand 011P (ligand)
chain: DGHHHHHHGSLQDSEVNQEAKPEVKPEVKPETHINLKVSDGSSEIFFKIKKTTPLRRLMEAFAKRQGKEMDSLTFLYDGIEIQADQTPEDLDMEDNDIIEAHREQIGGLEVLFQGPEQRVEIVPRDLRMKDKFLKHLTGPLYFSPKCSKHFHRLYHNTRDCTIPAYYKRCARLLTRLAVSPVCMEDKQ
notes: also called Li 011P
B12: Ligand 005P (ligand)
chain: DGHHHHHHGSLQDSEVNQEAKPEVKPEVKPETHINLKVSDGSSEIFFKIKKTTPLRRLMEAFAKRQGKEMDSLTFLYDGIEIQADQTPEDLDMEDNDIIEAHREQIGGLEVLFQGPALGRAEAAGLGPSPEQRVEIVPRDLRMKDKFLKHLTGPLYFSPKCSKHFHRLYHNTRDCTIPAYYKRCARLLTRLAVSPVCMEDKQ
B13: Ligand 013P (ligand)
chain: DGHHHHHHGSLQDSEVNQEAKPEVKPEVKPETHINLKVSDGSSEIFFKIKKTTPLRRLMEAFAKRQGKEMDSLTFLYDGIEIQADQTPEDLDMEDNDIIEAHREQIGGLEVLFQGPEIVPRDLRMKDKFLKHLTGPLYFSPKCSKHFHRLYHNTRDCTIPAYYKRCARLLTRLAVSPVCMEDKQ
B14: Ligand 010P (ligand)
chain: DGHHHHHHGSLQDSEVNQEAKPEVKPEVKPETHINLKVSDGSSEIFFKIKKTTPLRRLMEAFAKRQGKEMDSLTFLYDGIEIQADQTPEDLDMEDNDIIEAHREQIGGLEVLFQGPSPEQRVEIVPRDLRMKDKFLKHLTGPLYFSPKCSKHFHRLYHNTRDCTIPAYYKRCARLLTRLAVSPVCMEDKQ
B15: Ligand 008P (ligand)
chain: DGHHHHHHGSLQDSEVNQEAKPEVKPEVKPETHINLKVSDGSSEIFFKIKKTTPLRRLMEAFAKRQGKEMDSLTFLYDGIEIQADQTPEDLDMEDNDIIEAHREQIGGLEVLFQGPGLGPSPEQRVEIVPRDLRMKDKFLKHLTGPLYFSPKCSKHFHRLYHNTRDCTIPAYYKRCARLLTRLAVSPVCMEDKQ
B16: Ligand 014P (ligand)
chain: DGHHHHHHGSLQDSEVNQEAKPEVKPEVKPETHINLKVSDGSSEIFFKIKKTTPLRRLMEAFAKRQGKEMDSLTFLYDGIEIQADQTPEDLDMEDNDIIEAHREQIGGLEVLFQGPVPRDLRMKDKFLKHLTGPLYFSPKCSKHFHRLYHNTRDCTIPAYYKRCARLLTRLAVSPVCMEDKQ

How the values were obtained:
ALK 001P = molecular target: T1, ALK 001P; assay: SPR, Biacore 8K; ALK 001P captured on Protein A chip, ligand as analyte, 6 concentrations from 20 nM
T1 construct: ALK (1-19) is described only as a region comprising a secretory signal, and no cleavage site is stated; Expressed in Expi293 cells and captured on a Protein A chip through its Fc

LTK 001P = molecular target: T2, LTK 001P; assay: SPR, Biacore 8K; LTK 001P captured on Protein A chip, ligand as analyte, 6 concentrations from 20 nM
T2 construct: Expressed in Expi293 cells and captured on a Protein A chip through its Fc

Row | Binder | binding result (ALK 001P) | binding result (LTK 001P)
1 | B1 | binds | binds
2 | B2 | binds | binds
3 | B3 | binds | binds
4 | B4 | binds | binds
5 | B5 | binds | binds
6 | B6 | binds | binds
7 | B7 | binds | binds
8 | B8 | binds | binds
9 | B9 | binds | binds
10 | B10 | binds | binds
11 | B11 | binds | binds
12 | B12 | binds | binds
13 | B13 | binds | binds
14 | B14 | binds | binds
15 | B15 | binds | binds
16 | B16 | binds | binds
